The nanobody polyreactivity screen of Harvey et al. (2022)

Assay: yeast display, Sf9 membrane polyspecificity reagent, FACS + sequencing; frameworks hold sequencing errors
In short: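 Galactose induction of a Saccharomyces cerevisiae BJ5465 synthetic nanobody display library ran 36–48 hours. The cells were then stained for 1 hour at 4 °C with 10% biotinylated, detergent-solubilized Sf9 membrane reagent, pulled down on streptavidin microbeads and FACS-sorted into low and high (top ~1%) gates on expression and reagent-binding fluorescence. Labels for polyreactivity follow the gate of origin.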
With “QVQLVESGGGLVQAGGSLRLSCAASGRIFYYYAMGWYRQAPVKERELVAAISQRGGRTYYADSVKVRFTISRDNAKNTVYLQMNSLKPEDTAVYYCNAYPVYGRYTHYGYGHWGQGTQVTVSS” the “polyreactivity (PSR sort gate)” value was “high polyreactivity”. In the case of “QVQLVESGGGLVQAGGSLRLSCAASGRIFYYYAMVWYRQAPGKERELVAAITRRGGSTYYADSVKGRFTISRDNAMNTVYLLMNSLKPEDTAVYYCAKPVRTGWLDGDYWGQGTQVTVSS”, the “polyreactivity (PSR sort gate)” value is reported as “low polyreactivity”. For “QVQLVESGGGLVQAGGSLRLSCAASGRIFYYYGMGWYRQAPGKEREFVAAISLGGARTYYADSVKGRFTISRDNAKNTVYLQMNSLKPEDTAVYDCYARGIGRSTKWSSRDYWGQGTQVTVSS”, the “polyreactivity (PSR sort gate)” value was “high polyreactivity”. With “QVQLVESGGGLVQAGGSLRLSCAASGRIFYYYMAWYRHAPGKERELVAAITRGGGTYADSVKGRFTISRDNAKNTVYLQMNSLKPEDTAVYYCAAYPRGARRLDYWGQGTQVTVSS” the “polyreactivity (PSR sort gate)” value was “high polyreactivity”. With “QVQLVESGGGLVQAGGSLRLSCAASGRIFYYYTMGWYRQAPGKERELVARINSSGSTNLRRLCEGALHNFTRQCEEYRLFTDEQPETGRYRVYYCNADTKRSSREYDYWGQGTQVTVSS” the “polyreactivity (PSR sort gate)” value was “low polyreactivity”. For “QVQLVESGGGLVQAGGSLRLSCAASGRIGVYAMGWYRQAPGKERELVAAIRRSGGNTYYADSVKGRFTISRDNAKNTVYLQMNSLKPEDTAVYYCAAGRPYRFYPRYDYWGQGTQVTVSS”, the “polyreactivity (PSR sort gate)” value was “high polyreactivity”. With “QVQLVESGGGLVQAGGSLRLSCAASGRIIADNAMGWYRQAPGKERELVATISSGGSTSYADSVKGRFTISRDNAKNTVYLQMNSLKPDDTAVYYCATPYTGPSRPYDYWGQGTQVTVSS” the “polyreactivity (PSR sort gate)” value was “low polyreactivity”. With “QVQLVESGGGLVQAGGSLRLSCAASGRIIAWNDMGWYRQAPGKERELVAAIRWSSGTTYYADSVKGRFTISRDNAKNTVYLQINSLKPEDTAVYYCAAGGHARTWYAYYYWGQGTQVTVSS” the “polyreactivity (PSR sort gate)” value was “low polyreactivity”. For “QVQLVESGGGLVQAGGSLRLSCAASGRIIDIYAMGWYRQAPGKERELVAAITSGGSTYYADSVKGRFTISRDNAKNTVYLQMNSLKPEDTAVYYCAARLFADYWGQGTQVTVSS”, the “polyreactivity (PSR sort gate)” value was “low polyreactivity”. With “QVQLVESGGGLVQAGGSLRLSCAASGRIIFTNAMGWYRQARGKERELVASISRGGVRTYYADSVKGRFTISRDNAKNTVYLQMNSLKPEDTAVYYCDKGYHLVLPPLPQYDYWGQGTQVTVSS” the “polyreactivity (PSR sort gate)” value was “low polyreactivity”. With “QVQLVESGGGLVQAGGSLRLSCAASGRIIGFNAMGWYRQAPGKERELVASIRTTGGSTRYADSVKGRFTISRDNAKNTVYLQMNSLIPEDTAVYYCAARWGKTLWQYNYWGQGTQVTVSS” the “polyreactivity (PSR sort gate)” value was “high polyreactivity”. In the case of “QVQLVESGGGLVQAGGSLRLSCAASGRIIGIKAMGWYRLAPGKEMELVATITSGGDTNYADSVKGRFTISRDNAKNTVYIQMNSLKPEDTAVYYCNAESYGLGIGYEYWGQGTQVTVSS”, the “polyreactivity (PSR sort gate)” value is reported as “low polyreactivity”. In the case of “QVQLVESGGGLVQAGGSLRLSCAASGRIIGLYTMGWYRQAPGKERELVARITSGDRTYYADSVKGRFTISRDNAKNTVYLQMNSLKPEDTAVYYCAAEFTYRYDYWGQGTQVTVSS”, the “polyreactivity (PSR sort gate)” value is reported as “high polyreactivity”. In the case of “QVQLVESGGGLVQAGGSLRLSCAASGRIIGRYVMGWYRQAPGKERELVAAITRGGSTNYADSVKGRFTISRDNAKNTVYLQMNSLKPEDTAVYYCARAYSTVNRYSMYYWGQGTQVTVSS”, the “polyreactivity (PSR sort gate)” value is reported as “high polyreactivity”. In the case of “QVQLVESGGGLVQAGGSLRLSCAASGRIIGSNTMGWYRQAPGKEREFVATISSSGGSTYYADSVKGRFTISRDNAKNTVYLQMNSLKPEDTSVYYCAAPWSSGSRGGYDYWGQGTQVTVSS”, the “polyreactivity (PSR sort gate)” value is reported as “high polyreactivity”. With “QVQLVESGGGLVQAGGSLRLSCAASGRIIGTYAMGWYRQAPGKERELVAAITARTSSTYYADSVKGRFTISRDNAKNTVYLQMNSLKPEDTAVYYCARTGSYRPSFRYDYWGQGTQVTVSS” the “polyreactivity (PSR sort gate)” value was “high polyreactivity”. With “QVQLVESGGGLVQAGGSLRLSCAASGRIIGWYAMGWYRQAPGKERELVAAISQDATRTYYADSVTGRFTISRDHAKNTVYLQMLRLKPEDTAVYNCNVVYRYAGWSYDSWGQGTQVTVSS” the “polyreactivity (PSR sort gate)” value was “high polyreactivity”. For “QVQLVESGGGLVQAGGSLRLSCAASGRIIGYYAMGWYRQAPGKERELVAAITSGGRTNYADSVKGRFTISRDNAKNTVYLQMNSLKPEDTAVYYCAKEYPRYSSPYDYWGQGTQVTVSS”, the “polyreactivity (PSR sort gate)” value was “low polyreactivity”. In the case of “QVQLVESGGGLVQAGGSLRLSCAASGRIIGYYAMGWYRQAPGKERELVAAITSSGSRTYYADSVKGRFTISRDNAKNTVYLQMNSLKPEDTAVYYCATTKVYYSSKSSYYYWGQGTQVTVSS”, the “polyreactivity (PSR sort gate)” value is reported as “high polyreactivity”. In the case of “QVQLVESGGGLVQAGGSLRLSCAASGRIIGYYTMGWYSQAPGKERELVAAITSGGRTYYADSVKGRFTISRDNAKNTVYLQMNSLKPEDTAVYYCAADWYYRSDYWGQGTQVTVSS”, the “polyreactivity (PSR sort gate)” value is reported as “low polyreactivity”. In the case of “QVQLVESGGGLVQAGGSLRLSCAASGRIIGYYVMGWYRQAPGKERELVAAISSRTGTTYYADSVKGRFTISRDYAKNTVYLQMNRLKPEDTAVYYCNARELTTYWSFDYHHSEYDYWGQGTQVTVSS”, the “polyreactivity (PSR sort gate)” value is reported as “high polyreactivity”. With “QVQLVESGGGLVQAGGSLRLSCAASGRIIKFYAMGWNRQAPGKERELVAVIRSVTRTKYADSVKGRFTISRDNAKNTVYLQLNSLKPEDTAVYYCAAREVGKMDYWGQGTQVTVSS” the “polyreactivity (PSR sort gate)” value was “low polyreactivity”. With “QVQLVESGGGLVQAGGSLRLSCAASGRIIKYYTMGWYRQAPGKERELVAAISRGGTTNYADSVKGRFTISRDNAKNTVYLQMNSLKPEDTAVYYCNAVGFYAANTFDYWGQGTQVTVSS” the “polyreactivity (PSR sort gate)” value was “high polyreactivity”. In the case of “QVQLVESGGGLVQAGGSLRLSCAASGRIIPAYDMGWYRQAPGKERELVAAISQGAGGSTYYADSVKGRFTISRDNAKNTVYLQMISLKPEDTAVYSCAREGESGVVDTYGHVYVYEYDYWGQGTQVTVSS”, the “polyreactivity (PSR sort gate)” value is reported as “low polyreactivity”. In the case of “QVQLVESGGGLVQAGGSLRLSCAASGRIIPSYAMGWYRQAPGKERELVAAISDSDGSTYYADSVKGRFTISRDNAKNTVYLQMNSLKPEDTAVYYCAAEGSYPAYDYWGQGTQVTVSS”, the “polyreactivity (PSR sort gate)” value is reported as “low polyreactivity”. For “QVQLVESGGGLVQAGGSLRLSCAASGRIIRTYSMGRYRQAPGKERELVAVISRRGGRTYYADSVKGRFTFSRDNAKNTVYVQINSLKPEDTAVYYCNADYSGGGGGYWGQGTLVTVSS”, the “polyreactivity (PSR sort gate)” value was “high polyreactivity”. In the case of “QVQLVESGGGLVQAGGSLRLSCAASGRIITAYAMGWYRQAPGKEREFVAAINVSGGSTYYADSVKGRFTISRDNAKNTVYLQMDSLKPEDSAVYYCNADYYYYDIYWWQMDYWGQGTQVTVSS”, the “polyreactivity (PSR sort gate)” value is reported as “low polyreactivity”. For “QVQLVESGGGLVQAGGSLRLSCAASGRIITAYYAMGWSRQAPGKERELVASISSSGTSTYADSVKGRFTISRDNAKNTVYLQMNSLKPEDTAVYYCATRKLRTRRYDYGYWGQGTQVTVSS”, the “polyreactivity (PSR sort gate)” value was “low polyreactivity”. For “QVQLVESGGGLVQAGGSLRLSCAASGRIITGNAMGWYRQAPGKERELVATITRRGGSTYYADSVKGRFTISRDNAKNTVYLQMNSLKPEDTAVYYCAANRLFSYDKYGYWGQGTQVTVSS”, the “polyreactivity (PSR sort gate)” value was “high polyreactivity”. With “QVQLVESGGGLVQAGGSLRLSCAASGRIITKYTMGWYRQAPGKERELVAAISRSDRTNYADSVKGRFTISRDNAKNTVYLQMNSLKPEDTAVYYCAAQFTVLWYEYYYWGQGTQVTVSS” the “polyreactivity (PSR sort gate)” value was “high polyreactivity”. In the case of “QVQLVESGGGLVQAGGSLRLSCAASGRIIVHYAMGWYRQAPGKERELVAAISWSGGSTYYADSVKGRFTISRDIGNNTVYLQMNSLKPEDTAVYYCNALDPLYFRYDYWGQGTQVTVSS”, the “polyreactivity (PSR sort gate)” value is reported as “low polyreactivity”. With “QVQLVESGGGLVQAGGSLRLSCAASGRIIYNNAMGWSRQAPGTERELVAAISIGGITYYADSVKGRFTISRDNAKNTVYLQMNSLKPEDTAVYYCAALNTGYRTRRLGRDYWGQGTQVTVSS” the “polyreactivity (PSR sort gate)” value was “low polyreactivity”. With “QVQLVESGGGLVQAGGSLRLSCAASGRIIYRYAMGWYRQAPGKERELVATITWSTTSTYHADSVKGRFTISRDNAKNTVYLQMNSLKPEDTAVYYCAASIIPGFRRDPFGYWGQGTQVTVSS” the “polyreactivity (PSR sort gate)” value was “low polyreactivity”. With “QVQLVESGGGLVQAGGSLRLSCAASGRIIYTNAMGWYRQAPGKERELVAAINRSGGITYYADSVKGRFTISRDNAKNTVYVQMNSLKPEDTAVYYCAKDSSWASYNHDYWGQGTQVTVSS” the “polyreactivity (PSR sort gate)” value was “low polyreactivity”. With “QVQLVESGGGLVQAGGSLRLSCAASGRIIYVYAMGWYRQAPGKERELVAAISDSGGSTYYADSVKGRFTISRDNAKNTVYLQMNSLKPEDTAVYYCAAEGYYSDYWGQGTQVTVSS” the “polyreactivity (PSR sort gate)” value was “high polyreactivity”. For “QVQLVESGGGLVQAGGSLRLSCAASGRIIYYAMGWYRQAPGKERELVAAITRNGGTYADSVKGRFTISRDNAKNTVYLQMHRLKPEDTAVYYCNADPDFGDDYWGQGTQVTVSS”, the “polyreactivity (PSR sort gate)” value was “low polyreactivity”. In the case of “QVQLVESGGGLVQAGGSLRLSCAASGRIIYYYAMGWYRQAPGKERELVAAISWSGVNTYYADSVKGRFTISRDNAKNTVYLQMNSLKPEDTAVYYCAAGFAYKYSKGFWSDYWGQGTQVTVSS”, the “polyreactivity (PSR sort gate)” value is reported as “high polyreactivity”. For “QVQLVESGGGLVQAGGSLRLSCAASGRILAINVMGWYRQAPGKERELVAAITLSSGSTYYADSVKGRFTMSRDNAKNTVYFQMNSLKPEDTAVYYCAADVYSGLSEGYYWGQGTQVTVSS”, the “polyreactivity (PSR sort gate)” value was “low polyreactivity”. With “QVQLVESGGGLVQAGGSLRLSCAASGRILAPYAMGWYRQAPGKERELVAAINWSTGRTYYADSVKGRFTISRDNAKNTVYLQMNSLKPEDTAVYYCAALIVFDTLYDYGYWGQGPQVTVSS” the “polyreactivity (PSR sort gate)” value was “low polyreactivity”. For “QVQLVESGGGLVQAGGSLRLSCAASGRILARNAMGWYRQAPGKERELVAVISYSGGRTYYADSVKGRFTISRDNAKNTVYLQMNSLKPEDTAVYYCAASRSFQGNRYDYWGQGTQVTVSS”, the “polyreactivity (PSR sort gate)” value was “high polyreactivity”. With “QVQLVESGGGLVQAGGSLRLSCAASGRILARYAMGWYRQAPGKERELVASISRRGGSTYYADSVKGRFTISRDNAKNTVYLQMNSLKPEDTAVYYCNARGPVSSGYDYWGQGTQVTVSS” the “polyreactivity (PSR sort gate)” value was “high polyreactivity”.
